Laboratory results published in PMC3260417 (Bioorganic Chemistry, 2011).

What was measured:
[1] = target: 3-deoxy-D-arabino-heptulosonate 7-phosphate synthase from Aeropyrum pernix (Aeropyrum pernix); assay: SEC
[2] = target: DAH7PS^Ap (DAHPS^Ap; 3-deoxy-D-arabino-heptulosonate 7-phosphate synthase) (Aeropyrum pernix, UniProt Q9YEJ7); assay: initial rates, discontinuous periodate-thiobarbituric acid; assay type: biochemical; conditions: read-out: apparent Km; 3 mM PEP (saturating), pH 7.0, 60 °C; enzyme as isolated (Zn)

stoichiometry N [1]	Km [2]	Molecule
2		3-deoxy-D-arabino-heptulosonate 7-phosphate synthase from Aeropyrum pernix (enzyme)
	280 ± 20 µM	O=C[C@H](O)[C@H](O)COP(=O)(O)O [E4P]
